Source: a protein production outcome set (Wang et al. 2014)

Assay: label from the status in PepcDB records

MFLSAASSIIYLLLFFIASLIILVFSSDAFFDNAVPMFRSRGIGDMYAGTIFVGFASVLDEIALSASSLIFRHPEIGIGAVEGSNLITMAFFTVIVAVSYLEVAGEFTLDMIVILVLTILSMVFAEIFVHIPWFYSIALFVPFVVYLVIKAGGSKEAGYGPQEYSNIVLIVSFFLIFLSSDTLVRSTIGIASYTGINLVDLSAYGIGMVSSFPEIIMILVSLRGGRKVVSMGIFTGSTVYKMSLIPGIIIVSEPTGFSDIFYMLLAILVMSLLVLFLGIMSRKSQGRSNIH
protein production: failed

MRNETGGTMVVDLQTDPYNNIHSRHNLSYDLSEGPKPRPKFGNISKTDHDEIFPPDDPIIINSNVTHQRFSSVSASTMSSGPASGEGSPCVMSPWARVSPPWGADFNEDNVLETNGLIGSIVRKEGHIYSLAASGDLLYTGSDSKNIRVWKNLKEHAGFKSSSGLIKAIVIFGDRIFTGHQDGKIRIWKVSKRKPGKHKRVGTLPTFKSMVKSSVNPKHFMEVRRNRNSVKTKHNDAVSSLSLDVELGLLYSSSWDTTIKVWRIADSKCLESIHAHDDAINSVMSGFDDLVFTGSADGTVKVWKRELQGKGTKHTLAQVLLKQENAVTALAVKSQSSIVYCGSSDGLVNYWERSKRSFTGGILKGHKSAVLCLGIAGNLLLSGSADKNICVWRRDPSDKSHQCLSVLTGHMGPVKCLAVEEERACHQGAKASVAEGDRKWIIYSGSLDKSVKVWRVSERMATWKEMDEPAASSERKSSSSPHEGSGAWSSRNVEK
protein production: failed

MSLKFENTGLENQTVELSRLDDIMERLGFVRAAQWDYERVTYDRKYVVKEGTYYLRVQGYAIEGNVDSRYALIKLLTPIMGKHYYPHGVEYGDDEHFPSSLVSQCQNVLAQVKSELEKIKEEGHHHHHH
protein production: not failed

MSPVINHPVLGPAAPSLGWVPAPRYWLRRQRVLDHMRTLERGRLLEIGCGGGALLADLSRLGFDCRALETSPAARVVARAMNADTEGDKIVETAPADWRGSFDVVAAFEVLEHIDDDVGALRDWRDWLVDGGHILISVPADPRKFNAADEWAGHFRRYDKEDLHKVLKQAGFSVVSSETYGYPLANFLEYFRASAHQLMRKQWAHRSRDDATAQSGVNRSLDSKVWPLYSSALGVRALRLADSLQKRFRDNGRGNGLLVIGRRI
protein production: failed

YHDETAQDEEDRVLIHFNVRDIKIGPECHDVQPPEGRSRDGLLTVNLREGGRLHLCAETKDDALAWKTALLEANSTPVRVYSPYQDYYEVVPPNAHEATYVRSYYGPPYAGPGVTHVIVREDPCYSAGAPLAMGMLAGAATGAALGSLMWSPCWF
protein production: failed

MDAVKKAILGEVLEEEEAYEVMRALMAGEVSPVRAAGLLVALSLRGERPHEIAAMARAMREAARPLRVHRRPLLDIVGTGGDGKGLMXLSTLAALVAAAGGVAVAKHGXRAASSRAGSADLLEALGVDLEAPPERVGEAIEELGFGFLFARVFHPAMRHVAPVRAELGVRTVFXLLGPLTXPAGADAYVLGVFSPEWLAPMAEALERLGARGLVVHGEGADELVLGEXRVVEVGKGAYALTPEEVGLKRAPLEALKGGGPEEXAALARRLLKGEEKGPLADAVALAAGAGFYAAGKTPSLKEGVALAREVLASGEAYLLLERYVAFLRA
protein production: not failed

MKTRSSDAEGDSRGKMIAPVGEGNGGRKRKLVQSNEQKNDIQREEDGRAKRRIVQSSDQKNGKILRGIRGCVSPRCSAQTYQSRFSWYEQDIWTYISRFLDGKSLVKLGATNKWFYKIAMEDTVWRFACLRDLQVPVPFPVSSTWIKIYASAFDGSHSYLFRQKEKHIGAFVLDSRTSLLTESLSGRLKFPREGTIERMLQSSGSCLINDIKSGIWIADLQLVRCPVCDLSTCDGTMQTLDARHIELFLSEGYKDGSWDYNLIGSHKLQKNASAACGAIFDLKHLKESSYSGILNLKSWTGESNDSQPKAVIAPHAVAVHTRLQENEGILVKYHTMKAGTDGDIVSIRISQQLL
protein production: failed

MEQMIFIRKDDKVEVFSEEEELKGSYYRAILEDNPTKSGHNKLKVRYLTQLNEHRLAPLTEFVDQRFIRPVPSEDVNDGVVFVEGLMVDAYLKDGWWTGVVVKTMEDEKFLVYFDCPPDIIQFEKKKLRVHLDWTGFKWIRPDNKELVKSVFSCGTMVELRFDCAWIPVIVIKELEKDKRFLVKYWNKSYSCRESKNLIVDSLRLRPMQPPLSVGKYELLDHVEAFSGFEWRQGVVRGIVFEGRYMVSFGATKEASQFNHSDIRPPMEWEDGVWHKRTKPKRQKETSLDGNRNVQTKEPPGNEMADDVKKESGLPITLGVTATKNKTQGKVSPVPMKNGFGNESTREKMPEEPKIKYYTRKRKRGGLKLNSYINKTVLSSDRTPNVVKNSASNAEENHAKHTIMVLPFAKKSPVWKTYESLEVFKSVSHSLHFSPLFETKQDFREGYAIGMMVTYFGLLEKFKDLEADVPVSQLNSLKDSFSELEKHGFNVTTPLSRIDKLLALKDRQLYIMEELKGFDKEMTNEFSKAKQEFDDMEQKILEVKHKIIELQRQEAALKEQKEAEKEQKDAAWKKICQMESCAKDLNVELEDVEFEFETILSAPW
protein production: failed

MTITSNISVQNDNLVVQGKTILTKIPDNIILTPVTGNGFVSGSFIGATFEQSKSLHVFPIGVLEGLRFMCCFRFKLWWMTQRMGSCGKDIPLETQFMLLESKDEVEGNGDDAPTVYTVFLPLLEGQFRAVLQGNEKNEIEICFESGDKAVETSQGTHLVYVHAGTNPFEVIRQSVKAVERHMQTFHHREKKKLPSFLDWFGWCTWDAFYTDVTAEGVDEGLKSLSEGGTPPKFLIIDDGWQQIENKEKDENCVVQEGAQFATRLVGIKENAKFQKSDQKDTQVSGLKSVVDNAKQRHNVKQVYAWHALAGYWGGVKPAASGMEHYDSALAYPVQSPGVLGNQPDIVMDSLAVHGLGLVNPKKVFNFYNELHSYLASCGIDGVKVDVQNIIETLGAGLGGRVSLTRSYQQALEASIARNFTDNGCISCMCHNTDGLYSAKQTAIVRASDDFYPRDPASHTIHIASVAYNSLFLGEFMQPDWDMFHSLHPTAEYHAAARAVGGCAIYVSDKPGNHNFDLLRKLVLPDGSVLRAKLPGRPTRDCLFADPARDGIRCWLVQGNEEEPDP
protein production: failed

MGDALSLLQQADRLHRQLLRTGPAQAPCWEPPVDMIETESAVLIYVALPGVAAGDVAVRFDPDGISISGVRPLPALRNARIHGLEIPYGRFQRRIRLPLHALEPEAPTLADGCLTLTLKKLREAPLEHHHHHH
protein production: not failed

MLKRSIRLLTMGIIWFAISVANSTGRAEKSSDLERYLNTIQDPENIDKPFQPLQAGEYDQAYDYYIQGYYLKAFREALRRAEQNDPFAQTLVARIYMEGCAVPIDGARAALWFGRAAKQGEPQAQLRYGLMLFDGNFIAQNQEIGEEFIRKAVDAGVKEAYYYYGQLLLYKASREKQALAGVFSQSQENEAIDQALKWFLKGAALGDAAAAFAAAKILSLGTLTRPKDDRNARKLMEVAAQNKHLEAQILLAQWLVQGRGGETDFQRAFHLLLSNATKMIAPAQVALARLYRDGIGTKGDIVRAAAWYMLAKHAKIQAPDLEMMLEGMDHAQLEEARKEIIKLLPIF
protein production: failed

MMKKMMVLYNETSGSSESKEIAERFKKAAEARGEAVILQPSNPDIDPEEMRKNAKENQVGVLVVIGGDGTIHHAVQNFKDTIRDYQIGIIPGGTVNNFARVLSIPLKEEDAFETILAGQTTPVDFGMVNQD
protein production: failed

MLPSGLKETQLRESNNNQKVHPQPMEESINQNPEAMEALISNLFGNISSLKSAYIELQSAHTPYDPEKIQAADKVVISELKNLSEMKHFYRENNPKPVCVSPQDSRLAAEIQEQQSLLKTYEVMVKKFQSEIQNKDSEITQMLQKIEEANQKRLKLEKNLKLRGMSTNEGSNGDGNMQFPDLTTELYVSTYEAAAKAVHDFSKPLINMMKAAGWDLDSAANSIEPDVVYAKRPHKKYAFESYICQRMFSGFQQKNFSVNSESAAVMANDDTDTFFRQFLALKDMDPLDALGTNPDSNFGIFCRSKYLLLVHPKMEASFFGNLDQRDYVTGGGHPRTAFYQAFLKLAKSIWILHRLAYSFDPAAKIFQVKKGSEFSDSYMESVVKNIVVDEKEENPRVGLMVMPGFWIGGSVIQSRVYVSGVKVLE
protein production: failed
